In patent US20220229068A1, “DETECTION OF PROTEIN TO PROTEIN INTERACTIONS” (THE GOVERNING COUNCIL OF THE UNIVERSITY OF TORONTO, priority 2019, published 2022):
Blank lines part the entries; values can stand above or below the binder they belong to.

Experiments:
Assay in all cases: SIMPL ELISA, bait-IN/prey-CIC
[1] = molecular target: T1, DRAP1 (prey, CIC format) (human) (UniProt Q14919)
T1 sequence (looked up): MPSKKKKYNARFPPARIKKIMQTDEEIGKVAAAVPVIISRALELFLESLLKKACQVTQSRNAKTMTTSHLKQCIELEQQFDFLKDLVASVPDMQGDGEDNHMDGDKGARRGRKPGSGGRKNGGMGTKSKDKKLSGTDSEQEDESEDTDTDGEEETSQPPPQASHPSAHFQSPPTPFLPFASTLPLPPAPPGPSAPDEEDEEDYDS

[2] = molecular target: T2, NTF4 (prey, CIC format) (human) (UniProt P34130)
T2 sequence (looked up): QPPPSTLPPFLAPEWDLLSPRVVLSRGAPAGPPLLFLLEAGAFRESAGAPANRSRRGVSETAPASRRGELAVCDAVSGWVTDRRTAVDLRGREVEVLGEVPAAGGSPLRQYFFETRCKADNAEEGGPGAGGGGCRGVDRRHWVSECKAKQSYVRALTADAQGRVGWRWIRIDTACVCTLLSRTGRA

[3] = molecular target: T3, DCP1A (prey, CIC format) (human) (UniProt Q9NPI6)
T3 sequence (looked up): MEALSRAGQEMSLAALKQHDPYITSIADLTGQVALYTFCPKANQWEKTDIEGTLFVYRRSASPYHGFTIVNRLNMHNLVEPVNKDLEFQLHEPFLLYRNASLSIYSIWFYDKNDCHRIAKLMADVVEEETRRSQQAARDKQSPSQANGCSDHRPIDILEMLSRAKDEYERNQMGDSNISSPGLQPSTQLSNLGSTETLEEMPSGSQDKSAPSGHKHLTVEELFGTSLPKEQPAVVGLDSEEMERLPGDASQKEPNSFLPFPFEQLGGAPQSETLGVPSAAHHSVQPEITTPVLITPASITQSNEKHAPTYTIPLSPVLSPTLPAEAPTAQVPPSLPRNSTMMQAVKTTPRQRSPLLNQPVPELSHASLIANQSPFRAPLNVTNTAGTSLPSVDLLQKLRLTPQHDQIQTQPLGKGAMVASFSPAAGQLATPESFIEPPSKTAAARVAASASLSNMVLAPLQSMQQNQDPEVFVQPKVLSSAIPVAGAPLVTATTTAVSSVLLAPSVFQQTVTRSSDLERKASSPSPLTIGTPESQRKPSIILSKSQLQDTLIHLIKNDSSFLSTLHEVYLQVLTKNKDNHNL

[4] = molecular target: BCL2L1 (prey, CIC format) (human) (UniProt Q07817)
Chain of BCL2L1 (prey, CIC format) (human) (Q07817 whole entry): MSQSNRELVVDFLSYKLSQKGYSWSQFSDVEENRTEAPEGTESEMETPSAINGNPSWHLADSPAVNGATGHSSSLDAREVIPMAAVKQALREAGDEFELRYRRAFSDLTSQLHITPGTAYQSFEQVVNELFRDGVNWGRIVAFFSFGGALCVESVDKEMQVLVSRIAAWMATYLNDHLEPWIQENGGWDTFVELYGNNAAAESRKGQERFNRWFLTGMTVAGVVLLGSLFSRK

[5] = molecular target: T4, PDPK1 (prey, CIC format) (human) (UniProt O15530)
T4 sequence (looked up): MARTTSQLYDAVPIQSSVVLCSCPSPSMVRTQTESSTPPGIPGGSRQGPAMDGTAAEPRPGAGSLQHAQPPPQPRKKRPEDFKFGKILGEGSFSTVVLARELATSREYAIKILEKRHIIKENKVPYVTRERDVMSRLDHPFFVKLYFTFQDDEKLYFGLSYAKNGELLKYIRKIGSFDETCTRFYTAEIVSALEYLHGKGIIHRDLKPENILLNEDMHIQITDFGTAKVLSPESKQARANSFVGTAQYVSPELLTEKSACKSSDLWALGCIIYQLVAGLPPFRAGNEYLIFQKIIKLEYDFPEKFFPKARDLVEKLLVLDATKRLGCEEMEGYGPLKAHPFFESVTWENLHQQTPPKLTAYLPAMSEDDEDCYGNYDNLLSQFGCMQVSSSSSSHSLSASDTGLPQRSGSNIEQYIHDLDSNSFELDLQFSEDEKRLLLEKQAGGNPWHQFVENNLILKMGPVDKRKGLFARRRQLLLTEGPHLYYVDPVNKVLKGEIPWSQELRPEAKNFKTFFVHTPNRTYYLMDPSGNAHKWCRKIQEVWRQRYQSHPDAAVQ

[6] = molecular target: PCNA (prey, CIC format) (human) (UniProt P12004)
Chain of PCNA (prey, CIC format) (human) (P12004 whole entry): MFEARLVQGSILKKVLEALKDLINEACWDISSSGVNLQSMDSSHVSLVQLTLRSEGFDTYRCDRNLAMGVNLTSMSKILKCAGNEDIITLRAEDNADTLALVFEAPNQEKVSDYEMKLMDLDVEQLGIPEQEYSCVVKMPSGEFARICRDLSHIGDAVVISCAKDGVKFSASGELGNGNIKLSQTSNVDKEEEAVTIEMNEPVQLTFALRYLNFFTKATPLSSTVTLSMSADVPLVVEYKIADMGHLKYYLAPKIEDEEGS

[7] = molecular target: T5, FRS2 (prey, CIC format) (human) (UniProt Q8WU20)
T5 sequence (looked up): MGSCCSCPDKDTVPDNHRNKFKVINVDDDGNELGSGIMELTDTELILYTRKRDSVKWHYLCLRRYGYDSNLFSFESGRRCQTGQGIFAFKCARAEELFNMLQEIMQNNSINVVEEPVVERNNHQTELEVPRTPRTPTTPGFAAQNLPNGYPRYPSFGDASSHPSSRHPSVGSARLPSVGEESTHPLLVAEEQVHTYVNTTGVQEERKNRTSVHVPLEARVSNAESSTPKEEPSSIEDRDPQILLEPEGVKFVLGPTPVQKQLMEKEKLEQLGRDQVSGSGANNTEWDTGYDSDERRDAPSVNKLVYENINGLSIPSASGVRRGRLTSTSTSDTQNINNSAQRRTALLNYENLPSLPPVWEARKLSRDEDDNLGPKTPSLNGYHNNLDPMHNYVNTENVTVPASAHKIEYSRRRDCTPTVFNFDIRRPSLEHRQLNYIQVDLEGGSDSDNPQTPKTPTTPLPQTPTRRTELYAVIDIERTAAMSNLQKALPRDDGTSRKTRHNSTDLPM

[8] = molecular target: ARHGAP1 (prey, CIC format) (human) (UniProt Q07960)
Chain of ARHGAP1 (prey, CIC format) (human) (Q07960 whole entry): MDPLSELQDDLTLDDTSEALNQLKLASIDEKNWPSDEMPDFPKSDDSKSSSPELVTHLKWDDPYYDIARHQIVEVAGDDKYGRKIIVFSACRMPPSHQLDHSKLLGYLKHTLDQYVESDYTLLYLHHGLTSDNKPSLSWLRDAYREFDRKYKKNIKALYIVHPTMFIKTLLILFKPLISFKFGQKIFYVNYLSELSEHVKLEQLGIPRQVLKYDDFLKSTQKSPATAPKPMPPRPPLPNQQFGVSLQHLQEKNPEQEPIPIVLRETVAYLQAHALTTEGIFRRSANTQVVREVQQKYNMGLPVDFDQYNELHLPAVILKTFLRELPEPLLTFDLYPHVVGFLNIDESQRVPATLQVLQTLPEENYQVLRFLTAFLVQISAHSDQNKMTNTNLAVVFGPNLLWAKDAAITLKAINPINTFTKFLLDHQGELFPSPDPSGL

[9] = molecular target: CASP9 (prey, CIC format) (human) (UniProt P55211)
Chain of CASP9 (prey, CIC format) (human) (P55211 whole entry): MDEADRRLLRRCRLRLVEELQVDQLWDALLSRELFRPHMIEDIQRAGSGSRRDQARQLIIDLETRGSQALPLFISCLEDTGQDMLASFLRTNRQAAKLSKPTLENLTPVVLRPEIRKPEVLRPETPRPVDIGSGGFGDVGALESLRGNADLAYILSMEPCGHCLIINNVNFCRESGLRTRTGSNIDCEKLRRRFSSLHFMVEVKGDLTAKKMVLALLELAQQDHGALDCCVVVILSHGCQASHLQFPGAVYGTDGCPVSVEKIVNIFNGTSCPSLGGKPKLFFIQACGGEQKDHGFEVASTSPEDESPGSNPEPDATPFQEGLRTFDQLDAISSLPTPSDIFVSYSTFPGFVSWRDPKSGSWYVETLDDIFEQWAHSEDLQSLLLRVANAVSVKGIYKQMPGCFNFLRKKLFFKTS

[10] = substrate: FOS (prey, CIC format) (human) (UniProt P01100)
Chain of FOS (prey, CIC format) (human) (P01100 whole entry): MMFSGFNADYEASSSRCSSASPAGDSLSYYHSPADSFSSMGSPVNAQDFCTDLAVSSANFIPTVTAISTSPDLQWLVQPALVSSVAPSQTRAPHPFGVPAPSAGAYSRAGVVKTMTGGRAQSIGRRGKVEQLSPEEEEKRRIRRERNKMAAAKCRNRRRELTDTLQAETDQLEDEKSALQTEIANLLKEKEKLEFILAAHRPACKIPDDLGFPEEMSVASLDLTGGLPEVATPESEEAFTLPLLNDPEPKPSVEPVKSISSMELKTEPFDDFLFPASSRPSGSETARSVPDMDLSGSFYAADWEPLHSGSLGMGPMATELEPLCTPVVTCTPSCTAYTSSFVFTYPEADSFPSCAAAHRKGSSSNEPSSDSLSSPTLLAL

[11] = molecular target: DDIT3 (prey, CIC format) (human) (UniProt P35638)
Chain of DDIT3 (prey, CIC format) (human) (P35638 whole entry): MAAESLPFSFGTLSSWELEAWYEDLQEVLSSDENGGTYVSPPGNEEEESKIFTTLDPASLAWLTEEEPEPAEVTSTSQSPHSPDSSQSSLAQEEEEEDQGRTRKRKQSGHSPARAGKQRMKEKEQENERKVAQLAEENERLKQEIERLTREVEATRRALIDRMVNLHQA

[12] = molecular target: LMNB1 (prey, CIC format) (human) (UniProt P20700)
Chain of LMNB1 (prey, CIC format) (human) (P20700 whole entry): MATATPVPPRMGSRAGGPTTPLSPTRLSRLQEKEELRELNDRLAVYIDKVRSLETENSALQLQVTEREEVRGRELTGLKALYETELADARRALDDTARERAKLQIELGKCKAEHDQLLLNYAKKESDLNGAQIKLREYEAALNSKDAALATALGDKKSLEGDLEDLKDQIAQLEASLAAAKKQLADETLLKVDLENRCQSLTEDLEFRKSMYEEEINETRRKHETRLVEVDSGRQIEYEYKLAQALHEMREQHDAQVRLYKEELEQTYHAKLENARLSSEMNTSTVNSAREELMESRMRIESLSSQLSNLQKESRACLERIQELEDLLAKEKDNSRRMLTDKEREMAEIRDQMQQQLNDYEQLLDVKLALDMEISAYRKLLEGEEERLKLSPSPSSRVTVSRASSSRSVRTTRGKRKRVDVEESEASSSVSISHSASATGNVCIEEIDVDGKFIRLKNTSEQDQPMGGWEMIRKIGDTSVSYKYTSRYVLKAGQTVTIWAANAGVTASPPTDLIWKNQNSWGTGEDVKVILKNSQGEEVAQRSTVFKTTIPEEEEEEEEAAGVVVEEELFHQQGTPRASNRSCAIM

[13] = molecular target: T6, NCBP2 (prey, CIC format) (human) (UniProt P52298)
T6 sequence (looked up): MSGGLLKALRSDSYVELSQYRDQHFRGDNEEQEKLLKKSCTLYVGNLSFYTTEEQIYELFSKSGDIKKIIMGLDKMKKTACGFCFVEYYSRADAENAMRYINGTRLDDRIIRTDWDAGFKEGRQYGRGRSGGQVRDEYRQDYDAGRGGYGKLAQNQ

[14] = molecular target: T7, S100B (prey, CIC format) (human) (UniProt P04271)
T7 sequence (looked up): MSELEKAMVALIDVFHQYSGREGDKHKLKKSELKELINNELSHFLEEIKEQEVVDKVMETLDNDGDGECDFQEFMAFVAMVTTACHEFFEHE

[15] = molecular target: T8, BATF (prey, CIC format) (human) (UniProt Q16520)
T8 sequence (looked up): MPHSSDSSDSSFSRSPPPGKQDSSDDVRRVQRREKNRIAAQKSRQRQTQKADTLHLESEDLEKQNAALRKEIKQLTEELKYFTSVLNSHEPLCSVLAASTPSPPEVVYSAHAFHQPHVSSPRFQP

[16] = molecular target: T9, PTPN11 (prey, CIC format) (human) (UniProt Q06124)
T9 sequence (looked up): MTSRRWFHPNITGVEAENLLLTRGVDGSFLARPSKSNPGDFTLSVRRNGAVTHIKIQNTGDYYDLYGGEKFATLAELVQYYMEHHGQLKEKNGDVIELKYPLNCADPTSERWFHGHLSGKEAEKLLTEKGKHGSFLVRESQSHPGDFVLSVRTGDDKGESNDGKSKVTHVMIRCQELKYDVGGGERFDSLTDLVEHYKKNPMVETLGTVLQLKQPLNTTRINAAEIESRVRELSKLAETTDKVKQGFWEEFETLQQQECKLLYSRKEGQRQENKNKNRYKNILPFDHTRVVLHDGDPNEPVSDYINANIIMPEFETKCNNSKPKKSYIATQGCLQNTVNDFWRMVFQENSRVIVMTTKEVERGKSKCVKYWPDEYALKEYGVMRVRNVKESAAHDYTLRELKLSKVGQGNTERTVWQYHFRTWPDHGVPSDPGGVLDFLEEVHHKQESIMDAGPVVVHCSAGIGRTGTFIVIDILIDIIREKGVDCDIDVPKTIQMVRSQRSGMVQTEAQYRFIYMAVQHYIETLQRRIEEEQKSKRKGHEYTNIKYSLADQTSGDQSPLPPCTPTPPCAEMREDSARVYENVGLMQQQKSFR

PLU mean [1]: 3.97 | PLU mean [2]: 0.0529
B1: DR1 (bait, IN format) (protein, human, UniProt Q01658 1-176, looked up)
chain: MASSSGNDDDLTIPRAAINKMIKETLPNVRVANDARELVVNCCTEFIHLISSEANEICNKSEKKTISPEHVIQALESLGFGSYISEVKEVLQECKTVALKRRKASSRLENLGIPEEELLRQQQELFAKARQQQAELAQQEWLQMQQAAQQAQLAAASASASNQAGSSQDEEDDDDI

PLU mean [3]: 0.499 | PLU mean [4]: 1.85
B2: BAD (bait, IN format) (protein, human, UniProt Q92934 1-168, looked up)
chain: MFQIPEFEPSEQEDSSSAERGLGPSPAGDGPSGSGKHHRQAPGLLWDASHQQEQPTSSSHHGGAGAVEIRSRHSSYPAGTEDDEGMGEEPSPFRGRSRSAPPNLWAAQRYGRELRRMSDEFVDSFKKGLPRPKSAGTATQMRQSSSWTRVFQSWWDRNLGRGSSAPSQ

PLU mean [5]: 0.265 | PLU mean [6]: 0.0617 | PLU mean [7]: 0.21
B3: GADD45A (bait, IN format) (protein, human, UniProt P24522 1-165, looked up)
chain: MTLEEFSAGEQKTERMDKVGDALEEVLSKALSQRTITVGVYEAAKLLNVDPDNVVLCLLAADEDDDRDVALQIHFTLIQAFCCENDINILRVSNPGRLAELLLLETDAGPAASEGAEQPPDLHCVLVTNPHSSQWKDPALSQLICFCRESRYMDQWVPVINLPER

PLU mean [8]: 0.0585 | PLU mean [9]: 0.482 | PLU mean [10]: 0.788
B4: CEBPG (bait, IN format) (protein, human, UniProt P53567 1-150, looked up)
chain: MSKISQQNSTPGVNGISVIHTQAHASGLQQVPQLVPAGPGGGGKAVAPSKQSKKSSPMDRNSDEYRQRRERNNMAVKKSRLKSKQKAQDTLQRVNQLKEENERLEAKIKLLTKELSVLKDLFLEHAHNLADNVQSISTENTTADGDNAGQ

PLU mean [11]: 1.64 | PLU mean [12]: 0.134
B5: ATF3 (bait, IN format) (protein, human, UniProt P18847 1-181, looked up)
chain: MMLQHPGQVSASEVSASAIVPCLSPPGSLVFEDFANLTPFVKEELRFAIQNKHLCHRMSSALESVTVSDRPLGVSITKAEVAPEEDERKKRRRERNKIAAAKCRNKKKEKTECLQKESEKLESVNAELKAQIEELKNEKQHLIYMLNLHRPTCIVRAQNGRTPEDERNLFIQQIKEGTLQS

PLU mean [13]: 2.15 | PLU mean [14]: 0.217
B6: NCBP1 (bait, IN format) (protein, human, UniProt Q09161 1-790, looked up)
chain: MSRRRHSDENDGGQPHKRRKTSDANETEDHLESLICKVGEKSACSLESNLEGLAGVLEADLPNYKSKILRLLCTVARLLPEKLTIYTTLVGLLNARNYNFGGEFVEAMIRQLKESLKANNYNEAVYLVRFLSDLVNCHVIAAPSMVAMFENFVSVTQEEDVPQVRRDWYVYAFLSSLPWVGKELYEKKDAEMDRIFANTESYLKRRQKTHVPMLQVWTADKPHPQEEYLDCLWAQIQKLKKDRWQERHILRPYLAFDSILCEALQHNLPPFTPPPHTEDSVYPMPRVIFRMFDYTDDPEGPVMPGSHSVERFVIEENLHCIIKSHWKERKTCAAQLVSYPGKNKIPLNYHIVEVIFAELFQLPAPPHIDVMYTTLLIELCKLQPGSLPQVLAQATEMLYMRLDTMNTTCVDRFINWFSHHLSNFQFRWSWEDWSDCLSQDPESPKPKFVREVLEKCMRLSYHQRILDIVPPTFSALCPANPTCIYKYGDESSNSLPGHSVALCLAVAFKSKATNDEIFSILKDVPNPNQDDDDDEGFSFNPLKIEVFVQTLLHLAAKSFSHSFSALAKFHEVFKTLAESDEGKLHVLRVMFEVWRNHPQMIAVLVDKMIRTQIVDCAAVANWIFSSELSRDFTRLFVWEILHSTIRKMNKHVLKIQKELEEAKEKLARQHKRRSDDDDRSSDRKDGVLEEQIERLQEKVESAQSEQKNLFLVIFQRFIMILTEHLVRCETDGTSVLTPWYKNCIERLQQIFLQHHQIIQQYMVTLENLLFTAELDPHILAVFQQFCALQA

PLU mean [15]: 2.04 | PLU mean [16]: 0.345
B7: JUNB (bait, IN format) (protein, human, UniProt P17275 1-347, looked up)
chain: MCTKMEQPFYHDDSYTATGYGRAPGGLSLHDYKLLKPSLAVNLADPYRSLKAPGARGPGPEGGGGGSYFSGQGSDTGASLKLASSELERLIVPNSNGVITTTPTPPGQYFYPRGGGSGGGAGGAGGGVTEEQEGFADGFVKALDDLHKMNHVTPPNVSLGATGGPPAGPGGVYAGPEPPPVYTNLSSYSPASASSGGAGAAVGTGSSYPTTTISYLPHAPPFAGGHPAQLGLGRGASTFKEEPQTVPEARSRDATPPVSPINMEDQERIKVERKRLRNRLAATKCRKRKLERIARLEDKVKTLKAENAGLSSTAGLLREQVAQLKQKVMTHVSNGCQLLLGVKGHAF
